In ChEMBL document CHEMBL4196070, “Development of Piperazinediones as dual inhibitor for treatment of Alzheimer's disease” (Eur J Med Chem, 2018):

How the values were obtained:
[1] = compound: O=C1C(Cc2ccccc2)N(S(=O)(=O)c2ccc(Cl)cc2)C(=O)C(Cc2ccccc2)N1S(=O)(=O)c1ccc(Cl)cc1; experiment: (§1) Competitive inhibition of human MMP2 assessed as Vmax for substrate at 60 nM preincubated for 60 mins followed by Mca-Pro-Leu-Gly-Leu-Dpa-Ala-Arg-NH substrate addition by Lineweaver-Burk plot analysis (reference value: 3.4 to 3.6 nM/min)
[2] = compound: O=C1C(c2ccccc2)N(S(=O)(=O)c2ccc(Cl)cc2)C(=O)C(c2ccccc2)N1S(=O)(=O)c1ccc(Cl)cc1; experiment: as §1
[3] = compound: O=C1C(Cc2ccccc2)N(S(=O)(=O)c2ccc(Cl)cc2)C(=O)C(Cc2ccccc2)N1S(=O)(=O)c1ccc(Cl)cc1; experiment: (§2) Competitive inhibition of human MMP2 assessed as Km for substrate at 100 nM preincubated for 60 mins followed by Mca-Pro-Leu-Gly-Leu-Dpa-Ala-Arg-NH substrate addition by Lineweaver-Burk plot analysis (reference value: 10 to 25 nM)
[4] = compound: O=C1C(c2ccccc2)N(S(=O)(=O)c2ccc(Cl)cc2)C(=O)C(c2ccccc2)N1S(=O)(=O)c1ccc(Cl)cc1; experiment: as §2
[5] = compound: O=C1C(Cc2ccccc2)N(S(=O)(=O)c2ccc(Cl)cc2)C(=O)C(Cc2ccccc2)N1S(=O)(=O)c1ccc(Cl)cc1; experiment: (§3) Competitive inhibition of human MMP2 assessed as Km for substrate at 60 nM preincubated for 60 mins followed by Mca-Pro-Leu-Gly-Leu-Dpa-Ala-Arg-NH substrate addition by Lineweaver-Burk plot analysis (reference value: 10 to 25 nM)
[6] = compound: O=C1C(c2ccccc2)N(S(=O)(=O)c2ccc(Cl)cc2)C(=O)C(c2ccccc2)N1S(=O)(=O)c1ccc(Cl)cc1; experiment: as §3
[7] = compound: O=C1C(Cc2ccccc2)N(S(=O)(=O)c2ccc(Cl)cc2)C(=O)C(Cc2ccccc2)N1S(=O)(=O)c1ccc(Cl)cc1; experiment: (§4) Competitive inhibition of human MMP2 assessed as Vmax for substrate at 100 nM preincubated for 60 mins followed by Mca-Pro-Leu-Gly-Leu-Dpa-Ala-Arg-NH substrate addition by Lineweaver-Burk plot analysis (reference value: 3.4 to 3.6 nM/min)
[8] = compound: O=C1C(c2ccccc2)N(S(=O)(=O)c2ccc(Cl)cc2)C(=O)C(c2ccccc2)N1S(=O)(=O)c1ccc(Cl)cc1; experiment: as §4

B1: 72 kDa type IV collagenase (Homo sapiens), P08253 (protein)
chain: MEALMARGALTGPLRALCLLGCLLSHAAAAPSPIIKFPGDVAPKTDKELAVQYLNTFYGCPKESCNLFVLKDTLKKMQKFFGLPQTGDLDQNTIETMRKPRCGNPDVANYNFFPRKPKWDKNQITYRIIGYTPDLDPETVDDAFARAFQVWSDVTPLRFSRIHDGEADIMINFGRWEHGDGYPFDGKDGLLAHAFAPGTGVGGDSHFDDDELWTLGEGQVVRVKYGNADGEYCKFPFLFNGKEYNSCTDTGRSDGFLWCSTTYNFEKDGKYGFCPHEALFTMGGNAEGQPCKFPFRFQGTSYDSCTTEGRTDGYRWCGTTEDYDRDKKYGFCPETAMSTVGGNSEGAPCVFPFTFLGNKYESCTSAGRSDGKMWCATTANYDDDRKWGFCPDQGYSLFLVAAHEFGHAMGLEHSQDPGALMAPIYTYTKNFRLSQDDIKGIQELYGASPDIDLGTGPTPTLGPVTPEICKQDIVFDGIAQIRGEIFFFKDRFIWRTVTPRDKPMGPLLVATFWPELPEKIDAVYEAPQEEKAVFFAGNEYWIYSASTLERGYPKPLTSLGLPPDVQRVDAAFNWSKNKKTYIFAGDKFWRYNEVKKKMDPGFPKLIADAWNAIPDNLDAVVDLQGGGHSYFFKGAYYLKLENQSLKSVKFGSIKSDWLGC
Vmax [1]: 3.6 nM/min | Vmax [2]: 3.4 nM/min | Km [3]: 0.048 µM | Km [4]: 0.07 µM | Km [5]: 0.024 µM | Km [6]: 0.036 µM | Vmax [7]: 3.6 nM/min | Vmax [8]: 3.4 nM/min
